# Reference: IntAct's records for PubMed 31515488
# B1: Melanoma-associated antigen 4 (Homo sapiens), P43358 (parent)
# chain: MSSEQKSQHCKPEEGVEAQEEALGLVGAQAPTTEEQEAAVSSSSPLVPGTLEEVPAAESAGPPQSPQGASALPTTISFTCWRQPNEGSSSQEEEGPSTSPDAESLFREALSNKVDELAHFLLRKYRAKELVTKAEMLERVIKNYKRCFPVIFGKASESLKMIFGIDVKEVDPASNTYTLVTCLGLSYDGLLGNNQIFPKTGLLIIVLGTIAMEGDSASEEEIWEELGVMGVYDGREHTVYGEPRKLLTQDWVQENYLEYRQVPGSNPARYEFLWGPRALAETSYVKVLEHVVRVNARVRIAYPSLREAALLEEEEGV
# partner: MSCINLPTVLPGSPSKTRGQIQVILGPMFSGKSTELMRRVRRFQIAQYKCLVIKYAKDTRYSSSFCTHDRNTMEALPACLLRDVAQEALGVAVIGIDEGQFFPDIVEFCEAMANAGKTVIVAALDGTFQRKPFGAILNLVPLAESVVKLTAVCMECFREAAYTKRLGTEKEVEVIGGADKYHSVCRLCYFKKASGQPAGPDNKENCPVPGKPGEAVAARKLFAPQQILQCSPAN
# B2: L-fucose dehydrogenase (Homo sapiens), Q9BPX1 (parent)
# chain: MATGTRYAGKVVVVTGGGRGIGAGIVRAFVNSGARVVICDKDESGGRALEQELPGAVFILCDVTQEDDVKTLVSETIRRFGRLDCVVNNAGHHPPPQRPEETSAQGFRQLLELNLLGTYTLTKLALPYLRKSQGNVINISSLVGAIGQAQAVPYVATKGAVTAMTKALALDESPYGVRVNCISPGNIWTPLWEELAALMPDPRATIREGMLAQPLGRMGQPAEVGAAAVFLASEANFCTGIELLVTGGAELGYGCKASRSTPVDAPDIPS
# Variants of: B1
# Conditions: with kith_human TK1, P04183
row,Variant,effect of a mutation on the interaction
1,S41F,with no effect

# Variants of: B2
# Conditions: with psa1_human PSMA1, P25786
# psa1_human PSMA1, P25786, sequence (P25786 whole entry): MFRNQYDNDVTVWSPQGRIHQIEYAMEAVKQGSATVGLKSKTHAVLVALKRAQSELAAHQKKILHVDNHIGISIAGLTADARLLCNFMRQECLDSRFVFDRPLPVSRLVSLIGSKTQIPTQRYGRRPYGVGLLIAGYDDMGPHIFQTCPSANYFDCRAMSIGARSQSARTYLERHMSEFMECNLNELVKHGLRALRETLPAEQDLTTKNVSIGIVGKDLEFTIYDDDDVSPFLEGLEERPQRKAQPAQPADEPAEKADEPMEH
row,Variant,effect of a mutation on the interaction
1,A56T,with no effect
2,R130W,disrupting interaction strength
3,G16W,with no effect

# Variants of: B2
# Conditions: with sr1ip_human SREK1IP1, Q8N9Q2
# sr1ip_human SREK1IP1, Q8N9Q2, sequence (Q8N9Q2 whole entry): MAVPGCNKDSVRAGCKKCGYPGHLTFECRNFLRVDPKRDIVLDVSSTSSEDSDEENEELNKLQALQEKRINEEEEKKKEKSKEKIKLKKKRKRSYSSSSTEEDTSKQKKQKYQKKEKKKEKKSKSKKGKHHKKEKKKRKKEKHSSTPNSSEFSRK
row,Variant,effect of a mutation on the interaction
1,A56T,with no effect
2,R130W,disrupting interaction strength

# Variants of: B2
# Conditions: with ntaq1_human NTAQ1, Q96HA8
row,Variant,effect of a mutation on the interaction
1,A56T,with no effect
2,R130W,disrupting interaction strength

# Variants of: B2
# Conditions: with phf1_human PHF1, O43189
# phf1_human PHF1, O43189, sequence (O43189 whole entry): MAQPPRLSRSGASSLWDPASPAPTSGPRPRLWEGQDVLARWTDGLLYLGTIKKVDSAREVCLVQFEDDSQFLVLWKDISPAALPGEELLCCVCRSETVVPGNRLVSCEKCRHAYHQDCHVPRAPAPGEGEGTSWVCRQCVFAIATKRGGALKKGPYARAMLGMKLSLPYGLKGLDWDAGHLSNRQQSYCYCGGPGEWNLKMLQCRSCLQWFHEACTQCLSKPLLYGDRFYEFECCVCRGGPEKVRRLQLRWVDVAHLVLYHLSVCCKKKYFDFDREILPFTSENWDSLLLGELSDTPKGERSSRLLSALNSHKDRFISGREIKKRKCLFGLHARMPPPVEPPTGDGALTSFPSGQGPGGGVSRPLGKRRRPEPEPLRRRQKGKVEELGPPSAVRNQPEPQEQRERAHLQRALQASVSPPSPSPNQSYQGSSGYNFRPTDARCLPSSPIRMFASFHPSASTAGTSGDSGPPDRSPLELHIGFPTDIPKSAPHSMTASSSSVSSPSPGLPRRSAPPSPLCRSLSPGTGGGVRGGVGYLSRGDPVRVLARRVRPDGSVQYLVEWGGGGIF
row,Variant,effect of a mutation on the interaction
1,G16W,with no effect

# Variants of: B2
# Conditions: with cah8_human CA8, P35219
# cah8_human CA8, P35219, sequence (P35219 whole entry): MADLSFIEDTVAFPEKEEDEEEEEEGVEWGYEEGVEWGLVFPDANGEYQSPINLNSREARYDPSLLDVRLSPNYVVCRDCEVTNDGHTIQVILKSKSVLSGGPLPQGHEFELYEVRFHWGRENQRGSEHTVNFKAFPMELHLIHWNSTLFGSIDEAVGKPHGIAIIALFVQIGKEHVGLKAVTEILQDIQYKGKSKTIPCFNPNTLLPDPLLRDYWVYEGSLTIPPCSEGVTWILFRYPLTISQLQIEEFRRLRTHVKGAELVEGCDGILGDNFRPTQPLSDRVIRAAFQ
row,Variant,effect of a mutation on the interaction
1,G16W,with no effect
